Experimental data as given in publication PMC9986714.

Assays:
[1] = biological target: Fasciola hepatica cathepsin L2 (Fasciola hepatica)
Cathepsin F (human) = Cathepsin F (human) (UniProt Q9UBX1)
Cathepsin X (human) = Cathepsin X (human) (UniProt Q9UBR2)
[2] = biological target: Bovine cathepsin C (bovine)
[3] = biological target: Bovine cathepsin H (bovine)
[4] = biological target: Human cathepsin V (human) (UniProt O60911)
[5] = biological target: Human cathepsin K (human) (UniProt P43235)
[6] = biological target: Fasciola hepatica cathepsin L3 (Fasciola hepatica)
[7] = biological target: Fasciola hepatica cathepsin L1 (Fasciola hepatica)
Cathepsin S (human) = Cathepsin S (human) (UniProt P25774)
Cathepsin S (human), sequence (P25774 115-331): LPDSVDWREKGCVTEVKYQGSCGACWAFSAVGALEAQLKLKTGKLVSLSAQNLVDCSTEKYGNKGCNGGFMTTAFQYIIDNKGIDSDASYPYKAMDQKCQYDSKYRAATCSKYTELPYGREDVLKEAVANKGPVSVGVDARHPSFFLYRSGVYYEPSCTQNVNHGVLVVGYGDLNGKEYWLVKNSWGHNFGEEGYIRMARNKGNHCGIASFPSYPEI

[8] = biological target: Carica papaya papain (Carica papaya) (UniProt P00784)
Carica papaya papain (Carica papaya), sequence (P00784 134-345): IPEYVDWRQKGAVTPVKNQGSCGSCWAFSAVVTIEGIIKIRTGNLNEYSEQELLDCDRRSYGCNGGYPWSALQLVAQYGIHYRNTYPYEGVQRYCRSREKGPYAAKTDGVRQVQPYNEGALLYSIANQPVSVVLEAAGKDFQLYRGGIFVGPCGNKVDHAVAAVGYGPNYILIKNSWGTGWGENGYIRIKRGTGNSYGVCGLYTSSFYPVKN

[9] = biological target: Human cathepsin L (human)

Cathepsin X (human), sequence (Q9UBR2 62-303): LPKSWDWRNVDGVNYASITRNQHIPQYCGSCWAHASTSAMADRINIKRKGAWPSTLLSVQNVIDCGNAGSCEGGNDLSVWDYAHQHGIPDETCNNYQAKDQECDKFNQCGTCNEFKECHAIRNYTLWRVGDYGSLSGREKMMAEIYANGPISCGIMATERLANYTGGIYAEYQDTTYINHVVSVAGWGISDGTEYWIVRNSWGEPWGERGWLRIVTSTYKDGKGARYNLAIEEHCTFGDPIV
Cathepsin F (human), sequence (Q9UBX1 271-484): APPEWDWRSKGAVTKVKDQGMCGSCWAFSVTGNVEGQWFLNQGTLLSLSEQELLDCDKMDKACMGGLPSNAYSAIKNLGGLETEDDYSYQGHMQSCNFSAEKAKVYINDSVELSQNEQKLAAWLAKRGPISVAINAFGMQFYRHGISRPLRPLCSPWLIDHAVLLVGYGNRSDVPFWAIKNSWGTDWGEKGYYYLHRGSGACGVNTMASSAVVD
Human cathepsin K (human), sequence (P43235 115-329): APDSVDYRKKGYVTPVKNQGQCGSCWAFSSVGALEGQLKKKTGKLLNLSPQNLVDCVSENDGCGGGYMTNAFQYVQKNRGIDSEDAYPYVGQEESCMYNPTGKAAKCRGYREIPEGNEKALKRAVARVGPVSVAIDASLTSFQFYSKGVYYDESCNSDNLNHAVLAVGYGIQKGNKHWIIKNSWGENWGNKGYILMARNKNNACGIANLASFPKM
Human cathepsin V (human), sequence (O60911 114-334): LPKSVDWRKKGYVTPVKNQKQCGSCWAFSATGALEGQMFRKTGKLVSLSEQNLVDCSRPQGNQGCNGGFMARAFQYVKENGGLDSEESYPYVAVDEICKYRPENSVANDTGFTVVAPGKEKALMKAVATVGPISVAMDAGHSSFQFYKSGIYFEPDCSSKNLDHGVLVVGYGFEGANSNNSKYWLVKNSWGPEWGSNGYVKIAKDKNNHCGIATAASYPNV

“Fasciola hepatica cystatin-like stefin 2 (FhCyLS-2), recombinant (natural protein)” showed an IC50 of inhibition of protease activity (kinetic assay, 20 μM Z-Phe-Arg-AMC, 5 nM FhCL2, 50 mM MES pH 6.0, 37 °C, 15 min preincubation) [1] of 10 nM, an IC50 of inhibition of protease activity (kinetic assay, 27 μM Z-Phe-Arg-AMC, 1.2 nM cathepsin F, 100 mM Na acetate pH 5.5, 37 °C, 15 min preincubation) (Cathepsin F (human)) of 49 nM and an IC50 of inhibition of protease activity (kinetic assay, 87 μM Abz-Phe-Arg-Phe(NO2)-OH, 1.2 nM cathepsin X, 100 mM Na acetate pH 5.0, 37 °C, 15 min preincubation) (Cathepsin X (human)) of 8.4 µM. It also gave an IC50 of inhibition of protease activity (kinetic assay, 130 μM H-Gly-Arg-AMC, 0.4 nM cathepsin C, 100 mM Na acetate pH 5.5 with 50 mM NaCl, 37 °C, 15 min preincubation) [2] of 66 nM, an IC50 of inhibition of protease activity (kinetic assay, 100 μM H-Arg-AMC, 1.9 nM cathepsin H, 50 mM MES pH 6.5, 37 °C, 15 min preincubation) [3] of 2.5 nM and an IC50 of inhibition of protease activity (kinetic assay, 3.6 μM Z-Phe-Arg-AMC, 0.1 nM cathepsin V, 100 mM Na acetate pH 5.5, 37 °C, 15 min preincubation) [4] of 5.9 nM. The IC50 of inhibition of protease activity (kinetic assay, 53 μM Z-Phe-Arg-AMC, 0.2 nM cathepsin B, 100 mM Na acetate pH 5.5, 37 °C, 15 min preincubation) (Cathepsin B (human)) was 2.1 nM, the IC50 of inhibition of protease activity (kinetic assay, 4.3 μM Z-Phe-Arg-AMC, 0.2 nM cathepsin K, 100 mM Na acetate pH 5.5, 37 °C, 15 min preincubation) [5] was 8.6 nM and the IC50 of inhibition of protease activity (kinetic assay, 20 μM Z-Gly-Pro-Arg-AMC, 6 nM FhCL3, 50 mM MES pH 5.5, 37 °C, 15 min preincubation) [6] was 18 nM. For the same substance, the IC50 of inhibition of protease activity (kinetic assay, 20 μM Z-Phe-Arg-AMC, 2 nM FhCL1, 50 mM MES pH 5.5, 37 °C, 15 min preincubation) [7] was 2.5 nM, the IC50 of inhibition of protease activity (kinetic assay, 17 μM Z-Val-Val-Arg-AMC, 0.1 nM cathepsin S, 50 mM MES pH 6.5, 37 °C, 15 min preincubation) (Cathepsin S (human)) was 1.1 nM and the IC50 of inhibition of protease activity (kinetic assay, 100 μM Z-Phe-Arg-AMC, 0.5 nM papain, 100 mM Na acetate pH 5.5, 37 °C, 15 min preincubation) [8] was 1.1 nM. The IC50 of inhibition of protease activity (kinetic assay, 2.5 μM Z-Phe-Arg-AMC, 0.2 nM cathepsin L, 100 mM Na acetate pH 5.5, 37 °C, 15 min preincubation) [9] was 0.92 nM.
